Source: publication PMC3036151, “Cloning and endogenous expression of a Eucalyptus grandis UDP-glucose dehydrogenase cDNA” (Genetics and Molecular Biology, 2010)

Tests used:
[1] = substrate: NC(=O)c1ccc[n+]([C@@H]2O[C@H](COP(=O)(O)OP(=O)(O)OC[C@H]3O[C@@H](n4cnc5c(N)ncnc54)[C@H](O)[C@@H]3O)[C@@H](O)[C@H]2O)c1; test: purified protein; format: biochemical, Eucalyptus grandis; conditions: UDP-glucose saturating (1 mM), 20 mM Tris-HCl pH 8.0, 2 mM MgCl2, 30 °C, panel letters in text and Figure 3 caption are swapped, varied: cofactor
[2] = substrate: O=c1ccn([C@@H]2O[C@H](CO[P@@](=O)(O)O[P@@](=O)(O)O[C@H]3O[C@H](CO)[C@@H](O)[C@H](O)[C@H]3O)[C@@H](O)[C@H]2O)c(=O)[nH]1; test: purified protein; format: biochemical, Eucalyptus grandis; conditions: NAD+ saturating (1 mM), 20 mM Tris-HCl pH 8.0, 2 mM MgCl2, 30 °C, panel letters in text and Figure 3 caption are swapped

B1: UDP-glucose dehydrogenase (UGDH), Poly-His-Tagged eucalyptus UDP-GDH, UDP-GlucDH (Eucalyptus grandis) (protein)
chain: MVKICCIGAGYVGGPTMAVIALKCPSVEVAVVDISVSRIQAWNSEQLPIYEPGLDAVVKQCRGKNLFFSTDVEKHVFEADIVFVSVNTPTKTRGLGAGKAADLTYWESAARMIADVSKSDKIVVEKSTVPVKTAEAIEKILTHNSKGIKFQILSNPEFLAEGTAIQDLFAPDRVLIGGRETPEGQKAIQTLKDVYAHWVPEDRILTTNLWSAELSKLAANAFLAQRISSVNAMSSLCEATGADVAQVSYAVGKDSRIGPKFLNASVGFGGSCFQKDILNLVYICECNGLPEVAEYWKQVIKINDYQKARFVNRVVSSMFNTVSNKKIAILGFAFKKDTGDTRETPAIDVCKGLLGDKARLSIYDPQVTEEQIQRDLTMNKFDWDHPVHLQPMSPTTVKQVSVVWDAYDAVKDAHGLCILTEWDEFKTLDYQRIYDNMQKPAYIFDGRNVVNVNKLREIGFIVYSIGKPLDPWLKDMPAVA
notes: full-length ORF (1443 bp, 480 residues, about 53 kDa) from cambial-region cDNA, N-terminal 6xHis tag (pDEST17) kept, E. coli BL21-AI; cDNA ends set by degenerate primers
Km [1]: 67.3 ± 17.9 µM
Km [2]: 60.7 ± 8.5 µM
